Literature values in paper PMC3937638.

Molecular target: His45 (UniProt position 80, RKIGFHVCAAG)
Conditions: HA8(AN)-bound Link_TSG6

TSG-6 Link module (Link_TSG6; tumor necrosis factor-stimulated gene-6 protein, hyaluronan-binding domain) (Homo sapiens)
pKa: 5.7
